According to patent US20240352134A1 (NANJING IMMUNOPHAGE BIOTECH, published 2024):

Legend:
human CCR8 [1] = molecular target: T1, human CCR8 (human, UniProt P51685 1-355); assay: FACS as in Example 2; antibody after 40° C. 4 W; ratio to T0
T1 construct: whole, on cells; also called hCCR8; C-C Motif Chemokine Receptor 8

human CCR8 [2] = molecular target: T1, human CCR8; assay: FACS as in Example 2; antibody after Freeze/thaw 5FT; ratio to T0
human CCR8 [3] = molecular target: T1, human CCR8; assay: binding affinity EC50, comparison of Table 12 (FACS on CCR8-expressing cells)
human CCR8 [4] = molecular target: T1, human CCR8; assay: flow cytometry on 293F cells expressing hCCR8; column 'Inhibition EC50 (nM)'
Procedure: (§1) Human, rat, dog, mouse and cynomolgus CCR8 sequence were analysis. The result was shown that ECD2 regions of human, rat, dog, mouse and cynomolgus CCR8 were similar (Table 10). […] After reacting at 4° C. for 1 hour, it was reacted with Alexa Fluor 488 affinpure goat anti-human Ig(H+L) (Jackson, 109-545-003) and flow cytometry analysis was performed. The highest MFI of serially dilution is supposed as 100%, the inhibition percent was calculated according to the following formula.

human CCR8 [5] = molecular target: T1, human CCR8; assay: FACS as in Example 2; antibody after 40° C. 2 W; ratio to T0
human CCR8 [6] = molecular target: T1, human CCR8; assay: FACS on human CCR8-expressing 293F cells
human CCR8 [7] = molecular target: T1, human CCR8; assay: cell-based or functional assay
human CCR8 [8] = molecular target: T1, human CCR8; assay: cell-based or functional assay; remark: listed apart in the source
hCCR8(T103A) = molecular target: T2, hCCR8(T103A) (human, UniProt P51685 1-355); assay: flow cytometry on 293F cells transiently expressing the mutant; column 'Inhibition EC50 (nM)'
T2 construct: whole, on cells
T2 sequence (P51685 whole entry T103A): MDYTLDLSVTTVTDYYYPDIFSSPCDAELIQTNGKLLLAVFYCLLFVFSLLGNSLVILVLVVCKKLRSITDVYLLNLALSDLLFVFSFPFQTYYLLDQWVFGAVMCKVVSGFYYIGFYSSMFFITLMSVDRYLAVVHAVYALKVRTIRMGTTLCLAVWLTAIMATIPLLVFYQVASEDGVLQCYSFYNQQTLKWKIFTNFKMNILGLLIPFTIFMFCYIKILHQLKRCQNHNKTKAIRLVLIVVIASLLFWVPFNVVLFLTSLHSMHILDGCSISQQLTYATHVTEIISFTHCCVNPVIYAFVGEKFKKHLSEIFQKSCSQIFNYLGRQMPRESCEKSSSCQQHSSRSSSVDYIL
Procedure: as §1

hCCR8(L95A) = molecular target: T3, hCCR8(L95A) (human, UniProt P51685 1-355); assay: as above
T3 construct: whole, on cells
T3 sequence (P51685 whole entry L95A): as the sequence (P51685 whole entry T103A) above, with L95A, A103T counted along it
Procedure: as §1

hCCR8(M105A) = molecular target: T4, hCCR8(M105A) (human, UniProt P51685 1-355); assay: as above
T4 construct: whole, on cells
T4 sequence (P51685 whole entry M105A): as the sequence (P51685 whole entry T103A) above, with A103T, M105A counted along it
Procedure: as §1

hCCR8(V100A) = molecular target: T5, hCCR8(V100A) (human, UniProt P51685 1-355); assay: as above
T5 construct: whole, on cells
T5 sequence (P51685 whole entry V100A): as the sequence (P51685 whole entry T103A) above, with V100A, A103T counted along it
Procedure: as §1

hCCR8(Q98A) = molecular target: T6, hCCR8(Q98A) (human, UniProt P51685 1-355); assay: as above
T6 construct: whole, on cells
T6 sequence (P51685 whole entry Q98A): as the sequence (P51685 whole entry T103A) above, with Q98A, A103T counted along it
Procedure: as §1

hCCR8(L96A) = molecular target: T7, hCCR8(L96A) (human, UniProt P51685 1-355); assay: as above
T7 construct: whole, on cells
T7 sequence (P51685 whole entry L96A): as the sequence (P51685 whole entry T103A) above, with L96A, A103T counted along it
Procedure: as §1

hCCR8(D97A) = molecular target: T8, hCCR8(D97A) (human, UniProt P51685 1-355); assay: as above
T8 construct: whole, on cells; also called mutant of 97 aa in CCR8
T8 sequence (P51685 whole entry D97A): as the sequence (P51685 whole entry T103A) above, with D97A, A103T counted along it
Procedure: as §1

hCCR8(K107A) = molecular target: T9, hCCR8(K107A) (human, UniProt P51685 1-355); assay: as above
T9 construct: whole, on cells
T9 sequence (P51685 whole entry K107A): as the sequence (P51685 whole entry T103A) above, with A103T, K107A counted along it
Procedure: as §1

hCCR8(Y94A) = molecular target: T10, hCCR8(Y94A) (human, UniProt P51685 1-355); assay: as above
T10 construct: whole, on cells
T10 sequence (P51685 whole entry Y94A): as the sequence (P51685 whole entry T103A) above, with Y94A, A103T counted along it
Procedure: as §1

hCCR8(V104A) = molecular target: T11, hCCR8(V104A) (human, UniProt P51685 1-355); assay: as above
T11 construct: whole, on cells
T11 sequence (P51685 whole entry V104A): as the sequence (P51685 whole entry T103A) above, with A103T, V104A counted along it
Procedure: as §1

human CCR4 = molecular target: T12, human CCR4 (human, UniProt P51679 1-360); assay: flow cytometry on 293F cells expressing human CCR4; 14 dilutions by 3-fold from 25 µg/mL
T12 construct: whole, on cells; also called hCCR4
T12 sequence (looked up): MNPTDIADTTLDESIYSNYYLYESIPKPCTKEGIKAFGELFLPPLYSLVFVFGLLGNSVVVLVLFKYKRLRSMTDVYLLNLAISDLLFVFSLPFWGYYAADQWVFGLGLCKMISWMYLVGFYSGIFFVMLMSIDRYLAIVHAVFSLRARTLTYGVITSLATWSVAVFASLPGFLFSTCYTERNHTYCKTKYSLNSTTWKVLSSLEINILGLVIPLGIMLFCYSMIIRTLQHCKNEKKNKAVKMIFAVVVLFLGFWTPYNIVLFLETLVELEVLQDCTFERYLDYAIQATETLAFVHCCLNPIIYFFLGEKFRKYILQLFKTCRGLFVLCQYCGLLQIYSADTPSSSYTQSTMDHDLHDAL
Procedure: (§2) 3F11hz4 humanized antibody was tested for binding to CCR4 and CX3CR1 overexpressing cells by flow cytometry. […] After reacting at 4° C. for 1 hour, it was reacted with Alexa Fluor 488 affinipure goat anti-human Ig(H+L) (Jackson, 109-545-003) and flow cytometry analysis was performed.

human CX3CR1 = molecular target: T13, human CX3CR1 (human, UniProt P49238 1-355); assay: flow cytometry on 293F cells expressing human CX3CR1; 14 dilutions by 3-fold from 25 µg/mL
T13 construct: whole, on cells; also called hCX3CR1
T13 sequence (looked up): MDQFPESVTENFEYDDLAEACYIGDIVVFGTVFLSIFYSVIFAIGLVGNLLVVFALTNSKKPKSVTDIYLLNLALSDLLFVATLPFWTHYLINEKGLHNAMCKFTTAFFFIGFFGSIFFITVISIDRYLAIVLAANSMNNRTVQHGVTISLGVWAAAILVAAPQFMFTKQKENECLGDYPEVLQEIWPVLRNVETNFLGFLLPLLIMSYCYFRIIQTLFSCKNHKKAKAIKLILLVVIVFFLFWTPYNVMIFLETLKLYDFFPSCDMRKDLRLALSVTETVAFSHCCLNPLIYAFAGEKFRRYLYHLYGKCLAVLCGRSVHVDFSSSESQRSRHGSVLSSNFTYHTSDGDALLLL
Procedure: as §2

human CCR8 [9] = molecular target: T1, human CCR8; assay: FACS as in Example 2; antibody after 40° C. 1 W; ratio to T0
human CCR8 [10] = molecular target: T1, human CCR8; assay: FACS as in Example 2; antibody after Oxidation 24 h; ratio to T0
human CCR8 [11] = molecular target: T1, human CCR8; assay: FACS as in Example 2; T0 (the reference itself)

T1 sequence (P51685 whole entry): as the sequence (P51685 whole entry T103A) above, with A103T counted along it

- Affinity EC50 (nM) Ratio (human CCR8 [1]): 1.35
- Affinity EC50 (nM) Ratio (human CCR8 [2]): 1.22
- EC50 (human CCR8 [3]): 0.19 nM
- EC50 (human CCR8 [4]): 0.234 nM
- Affinity EC50 (nM) Ratio (human CCR8 [5]): 1.27
- EC50 (human CCR8 [6]): 0.194 nM
- Calcium mobilization IC50 (human CCR8 [7]): 4 nM
- Calcium mobilization IC50 (nM) Ratio; 40° C. 1 W (human CCR8 [8]): 1.31
- Calcium mobilization IC50 (nM) Ratio; 40° C. 2 W (human CCR8 [8]): 1.03
- Calcium mobilization IC50 (nM) Ratio; 40° C. 4 W (human CCR8 [8]): 2.22
- Calcium mobilization IC50 (nM) Ratio; Freeze/thaw 5FT (human CCR8 [8]): 1.5
- Calcium mobilization IC50 (nM) Ratio; Oxidation 24 h (human CCR8 [8]): 1.63
- Calcium mobilization IC50 (nM) Ratio; T0 (human CCR8 [8]): 1
- EC50 (hCCR8(T103A)): 0.311 nM
- EC50 (hCCR8(L95A)): 0.459 nM
- EC50 (hCCR8(M105A)): 0.334 nM
- EC50 (hCCR8(V100A)): 0.237 nM
- EC50 (hCCR8(Q98A)): 0.194 nM
- EC50 (hCCR8(L96A)): 0.28 nM
- EC50 (hCCR8(D97A)): 24 nM
- EC50 (hCCR8(K107A)): 0.22 nM
- EC50 (hCCR8(Y94A)): 0.306 nM
- EC50 (hCCR8(V104A)): 0.341 nM
- binding result (human CCR4): no binding (tested: 25 µg/mL)
- binding result (human CX3CR1): no binding (tested: 25 µg/mL)
- Affinity EC50 (nM) Ratio (human CCR8 [9]): 1.34
- Affinity EC50 (nM) Ratio (human CCR8 [10]): 1.36
- Affinity EC50 (nM) Ratio (human CCR8 [11]): 1
B1: 3F11hz4 (antibody, V domains shown)
VH: EVQLVESGGGLVQPGGSLKLSCAASGFSFNTYAMNWVRQASGKGLEWVGRIRSKSNYYATYYAASVKGRFTISRDDSKSTLYLQMNSLKTEDTAVYYCVRGRELGDYYAMDYWGQGTLVTVSS
VL: DIVMTQSPLSLPVTPGEPASISCRSSKSLLHSNGNTYLYWFLQKPGQSPQLLIYRMSNLASGVPDRFSGSGSGTDFTLKISRVEAEDVGVYYCMQHLEYPFTFGQGTKLEIK
notes: Humanized variant of 3F11; also called humanized 3F11hz4 antibody
